Measurements as given in the supplement of paper PMC6755084.

Tested on: F1*sub RNA substrate (template-directed ligation)
Experiment: fraction ligated after 30 min (ligated reads / total reads); higher = more ligase activity; sequences stand for … in GAGACCGCAACTGAAAAGTTGT…AGTTCTGCACGTAGAAGCAAAAGGC
Conditions: 42 °C
Method in brief: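 Templates from an oligo pool were PCR-amplified, transcribed with T7 and gel-purified to give the ribozyme variants. Ligated and unligated products were separated on gel, reverse transcribed using barcoded primers, and read on a MiSeq. A quality filter of ≥20 was applied to core bases. Fraction ligated was taken as ligated reads as a share of all reads per variant.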

Sequence	fraction ligated
TATCCTTGTCGTAAGACACTTTGTGGGTTGA [3d1105]	0.0549
TATCCTTGTCGTAAGACATTGGATGGGTTGA [3d1090]	0.772
TATCCTTGTCGTAAGACATTTGATGGGTTGA [3d1091]	0.775
TATCCTTGTCGTAAGACATTTGGAGGGTTGA [3d1093]	0.0135
TATCCTTGTCGTAAGACATTTGGATGGGTTA [3d1095]	0.455
TATCCTTGTCGTAAGACATTTGGATGGGTTG [3d1096]	0.772
TATCCTTGTCGTAAGACATTTGGATGGTTGA [3d1094]	0.0378
TATCCTTGTCGTAAGACATTTGGTGGGTTGA [3d1092]	0.237
TATCCTTGTCGTAAGACCTTGGATGGGTTGA [3d1083]	0.756
TATCCTTGTCGTAAGACCTTTGATGGGTTGA [3d1084]	0.762
TATCCTTGTCGTAAGACCTTTGGAGGGTTGA [3d1086]	0.0073
TATCCTTGTCGTAAGACCTTTGGATGGGTTA [3d1088]	0.347
TATCCTTGTCGTAAGACCTTTGGATGGGTTG [3d1089]	0.762
TATCCTTGTCGTAAGACCTTTGGATGGTTGA [3d1087]	0.0339
TATCCTTGTCGTAAGACCTTTGGTGGGTTGA [3d1085]	0.212
TATCCTTGTCGTAAGACTTTGGATGGGTTGA [3d1065]	0.76
TATCCTTGTCGTAAGCACTTGGATGGGTTGA [3d1068]	0.685
TATCCTTGTCGTAAGCACTTTGATGGGTTGA [3d1069]	0.754
TATCCTTGTCGTAAGCACTTTGGAGGGTTGA [3d1071]	0.0111
TATCCTTGTCGTAAGCACTTTGGATGGGTTA [3d1073]	0.381
TATCCTTGTCGTAAGCACTTTGGATGGGTTG [3d1074]	0.768
TATCCTTGTCGTAAGCACTTTGGATGGTTGA [3d1072]	0.0464
TATCCTTGTCGTAAGCACTTTGGTGGGTTGA [3d1070]	0.0868

Sequence	fraction ligated
TATCCTTGTCGTAAGCATTTGGATGGGTTGA [3d1067]	0.763
TATCCTTGTCGTAAGCCTTTGGATGGGTTGA [3d1066]	0.75
TATCCTTGTCGTAGAACTTTGGATGGGTTGA [3d1045]	0.792
TATCCTTGTCGTAGACACTTGGATGGGTTGA [3d1048]	0.782
TATCCTTGTCGTAGACACTTTGATGGGTTGA [3d1049]	0.804
TATCCTTGTCGTAGACACTTTGGAGGGTTGA [3d1051]	0.00532
TATCCTTGTCGTAGACACTTTGGATGGGTTA [3d1053]	0.398
TATCCTTGTCGTAGACACTTTGGATGGGTTG [3d1054]	0.786
TATCCTTGTCGTAGACACTTTGGATGGGTTGA [2d96]	0.79
TATCCTTGTCGTAGACACTTTGGATGGTTGA [3d1052]	0.0426
TATCCTTGTCGTAGACACTTTGGTGGGTTGA [3d1050]	0.26
TATCCTTGTCGTAGACATTTGGATGGGTTGA [3d1047]	0.768
TATCCTTGTCGTAGACCTTTGGATGGGTTGA [3d1046]	0.773
TATCCTTGTCGTAGCACTTTGGATGGGTTGA [3d1044]	0.774
TATCCTTGTCGTGACACTTTGGATGGGTTGA [3d1042]	0.798
TATCCTTGTCTAAACACTTTGGATGGGTTGA [3d1017]	0.793
TATCCTTGTCTAAGAACTTTGGATGGGTTGA [3d1019]	0.764
TATCCTTGTCTAAGACACTTGGATGGGTTGA [3d1022]	0.764
TATCCTTGTCTAAGACACTTTGATGGGTTGA [3d1023]	0.748
TATCCTTGTCTAAGACACTTTGGAGGGTTGA [3d1025]	0.0172
TATCCTTGTCTAAGACACTTTGGATGGGTTA [3d1027]	0.394
TATCCTTGTCTAAGACACTTTGGATGGGTTG [3d1028]	0.773
TATCCTTGTCTAAGACACTTTGGATGGGTTGA [2d94]	0.798
